For two molecules, Kd results are on record in paper PMC5625722.

The test concerns the target Proliferating cell nuclear antigen (PCNA), wild type (UniProt P15873). The experiment in a line: MST; fluorescently labeled PCNA (22 nM, RED-NHS) constant, Mus81 (1-319) fragment 1.3-5500 nM; T buffer with 0.05% Tween-20 and 150 mM KCl; 25 °C; Monolith NT.115; apparent Kd.

Numbering of substitutions follows the chain as printed. Numbers in names are those of the source.

B1: N-terminal fragment of Mus81 (1-319) (domain or fragment)
chain: MELSSNLKDLYIEWLQELVDGLTPKQEQLKIAYEKAKRNLQNAEGSFYYPTDLKKVKGIGNTIIKRLDTKLRNYCKIHHISPVEAPSLTQTSSTRPPKRTTTALRSIVNSCENDKNEAPEEKGTKKRKTRKYIPKKRSGGYAILLSLLELNAIPRGVSKEQIIEVAGKYSDHCMTPNFSTKEFYGAWSSIAALKKHSLVLEEGRPKRYSLTEEGVELTKSLKTADGISFPKENEEPNEYSVTRNESSEFTANLTDLRGEYGKEEEPCDINNTSFMLDITFQDLSTPQRLQNNVFKNDRLNSQTNISSHKLEEVSDDQTV
B1: the Kd turned out to be 0.253 µM.

B2: Mus81 (1-319) E44Q mutant (domain or fragment)
chain: B1 chain with E44Q
Turning to B2, the Kd is 20.5 µM.
